Data from patent publication US20260166140A1, “Combinations Involving Epidermal Growth Factor Receptor Tyrosine Kinase Inhibitors For the Treatment of Cancer” (AstraZeneca AB, priority 2022, published 2026).
Positions count from the first letter of the chain named.

Columns and labels:
[1] = test system: Cynomolgus monkey EGFR; experiment: SPR (BIAcore T200) antibody capture kinetics; type: binding; conditions: 25° C.
Protocol: (§1) Mouse anti-human IgG was immobilized on a CM4 sensor chip with a final surface density of ˜2000 resonance units (RUs). A reference flow cell surface was also prepared on this sensor chip using identical immobilization protocol. Test and control article antibodies were prepared at 5-20 nM in instrument buffer (HBS-EP buffer; 0.01M HEPES, pH 7.4, 0.15M NaCl, 3 mM EDTA, and 0.005% P-20), along with 3-fold serial dilutions of purified EGFR (0.27-200 nM human, 0.4-900 nM cyno, and 4-1000 nM murine) or cMET proteins (0.27 to 66 nM human and 0.27-22 nM cyno) in instrument buffer. A sequential approach was utilized for kinetic measurements. Antibodies were first injected over the capture surface, at a flow rate of 10 μL/minute. Once the binding of the captured antibody stabilized, a single concentration of the analyte was injected over both capture and reference surfaces, at a flow rate of 75 μL/minute. The resulting binding response curves yielded the association phase data. Following the injection of analyte, the flow was then switched back to instrument buffer for 15 minutes to permit the collection of dissociation phase data, followed by a 1-minute pulse of 10 mM glycine, pH 1.5, to regenerate the antibody-captured surface on the chip. Binding responses against test and control article antibodies were recorded from duplicate injections of each concentration of analyte. In addition, several buffer injections were interspersed throughout the injection series. Select buffer injections were used along with the reference cell responses to correct the raw data sets for injection artifacts and/or nonspecific binding interactions, commonly referred to as “double referencing”. Corrected binding data were globally fit to a 1:1 binding model (Biacore T200 Evaluation software 2.0, GE Healthcare, Pittsburgh, PA).

[2] = test system: Cynomolgus monkey cMET; experiment: SPR (BIAcore T200) antibody capture kinetics; type: binding; conditions: 25° C.
Sequence of Cynomolgus monkey cMET (as listed by the source): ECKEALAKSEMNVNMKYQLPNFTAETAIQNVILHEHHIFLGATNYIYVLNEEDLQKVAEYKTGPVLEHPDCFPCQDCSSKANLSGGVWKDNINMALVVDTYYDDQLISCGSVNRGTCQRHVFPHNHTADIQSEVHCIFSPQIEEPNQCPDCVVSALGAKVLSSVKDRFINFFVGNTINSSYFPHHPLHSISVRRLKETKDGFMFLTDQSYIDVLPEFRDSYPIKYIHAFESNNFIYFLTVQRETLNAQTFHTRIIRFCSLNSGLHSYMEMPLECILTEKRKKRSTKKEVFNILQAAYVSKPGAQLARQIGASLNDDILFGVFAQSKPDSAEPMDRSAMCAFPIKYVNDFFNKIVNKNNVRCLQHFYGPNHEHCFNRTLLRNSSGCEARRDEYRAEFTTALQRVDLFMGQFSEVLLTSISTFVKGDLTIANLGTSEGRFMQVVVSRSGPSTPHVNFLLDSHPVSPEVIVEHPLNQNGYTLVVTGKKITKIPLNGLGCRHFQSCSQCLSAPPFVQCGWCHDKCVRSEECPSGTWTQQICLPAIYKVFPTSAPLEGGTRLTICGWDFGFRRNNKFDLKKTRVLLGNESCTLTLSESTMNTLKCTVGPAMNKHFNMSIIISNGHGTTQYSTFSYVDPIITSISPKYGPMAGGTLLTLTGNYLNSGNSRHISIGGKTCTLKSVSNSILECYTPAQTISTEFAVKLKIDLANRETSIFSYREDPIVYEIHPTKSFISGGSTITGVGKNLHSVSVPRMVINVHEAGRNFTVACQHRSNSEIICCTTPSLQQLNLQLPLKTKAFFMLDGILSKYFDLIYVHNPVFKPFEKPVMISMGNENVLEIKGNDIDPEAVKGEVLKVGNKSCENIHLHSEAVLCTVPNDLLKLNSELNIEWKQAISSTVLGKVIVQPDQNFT
Protocol: as §1

[3] = biological target: T1, Human EGFR (Homo sapiens, UniProt P00533); experiment: SPR (BIAcore T200) antibody capture kinetics; type: binding; conditions: for Koff / Kon: 25° C.; for Kon: 1:1 binding model
Protocol: as §1

[4] = biological target: Human cMET (Homo sapiens, UniProt P08581); experiment: SPR (BIAcore T200) antibody capture kinetics; type: binding; conditions: for Koff / Kon: 25° C.
Sequence of Human cMET (P08581 25-932): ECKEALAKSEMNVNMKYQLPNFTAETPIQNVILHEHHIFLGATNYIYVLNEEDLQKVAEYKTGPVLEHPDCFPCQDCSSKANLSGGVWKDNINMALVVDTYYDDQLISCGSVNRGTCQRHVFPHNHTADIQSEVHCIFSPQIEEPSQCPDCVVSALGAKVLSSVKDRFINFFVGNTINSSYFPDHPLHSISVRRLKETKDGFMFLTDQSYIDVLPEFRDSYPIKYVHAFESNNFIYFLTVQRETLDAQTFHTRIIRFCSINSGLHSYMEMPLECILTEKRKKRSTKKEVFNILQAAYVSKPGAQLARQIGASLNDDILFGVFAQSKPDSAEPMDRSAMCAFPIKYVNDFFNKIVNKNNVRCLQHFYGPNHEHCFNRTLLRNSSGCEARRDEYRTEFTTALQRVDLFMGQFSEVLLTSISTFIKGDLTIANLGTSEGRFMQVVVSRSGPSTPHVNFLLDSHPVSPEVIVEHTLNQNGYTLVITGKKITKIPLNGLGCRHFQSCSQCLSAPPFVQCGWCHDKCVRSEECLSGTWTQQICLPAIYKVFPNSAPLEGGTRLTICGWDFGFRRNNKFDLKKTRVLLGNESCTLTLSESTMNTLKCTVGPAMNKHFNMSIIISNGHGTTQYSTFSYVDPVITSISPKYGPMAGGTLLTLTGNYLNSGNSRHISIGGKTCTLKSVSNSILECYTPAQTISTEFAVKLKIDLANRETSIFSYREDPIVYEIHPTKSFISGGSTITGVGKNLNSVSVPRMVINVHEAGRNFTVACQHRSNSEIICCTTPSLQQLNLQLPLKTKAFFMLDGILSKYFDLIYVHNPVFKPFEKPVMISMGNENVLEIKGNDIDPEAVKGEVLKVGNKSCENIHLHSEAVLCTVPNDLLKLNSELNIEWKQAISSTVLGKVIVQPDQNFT
Protocol: as §1

[5] = biological target: T2, Mouse EGFR (Mus musculus, UniProt Q01279); experiment: SPR (BIAcore T200) antibody capture kinetics; type: binding; conditions: for Koff / Kon: 25° C.
T2 construct: purchased SinoBiological 51091-M08H
Protocol: as §1

[6] = test system: Cynomolgus monkey EGFR; experiment: ELISA species cross reactivity; type: binding
Protocol: (§2) Specificity for EGFR and cMET species paralogs and closely related family members was determined by ELISA. Briefly, antigen solutions were prepared in PBS at 1 μg/mL and 50 microliters was coated onto half area ELISA assay plates. Plates were washed and blocked with 1% BSA in PBS containing 0.005% Tween-20 (PBS-T) for one hour at room temperature. The wells were washed 4 times in PBS-T. As set out in FIG. 3, the primary antibodies used where: R374 (a non-binding IgG1 isotype control antibody), B09 (anti-cMET antibody), QD6 (anti-EGFR antibody), RAA22 (anti-EGFR antibody), QD6/B09 (bispecific EGFR/c-MET DuetMAb), RAA22/B09 (bispecific EGFR/c-MET DuetMAb), PaniX (anti-EGFR antibody), MetMab (anti-cMET antibody) and Mab11311 (anti-HER4 antibody). Wells were incubated with 50 microliters of the indicated primary antibodies diluted in PBS-T in a 1:3 dilution series, starting at 10 μg/mL and ending at 0.002 μg/mL, except for the HER4 binding mAb control, MAB1131, for which the series started at 1 μg/mL. The wells were washed 4 times in PBS-T, then 50 μl of goat anti-human Fab HRP-labeled secondary antibody, diluted 1:5000 in PBS-T, was added to each well and incubated for one hour at room temperature. […] 50 microliters of TMB stop solution was added to all wells and the absorbance was read at 450 nm on a SpectraMax M5 microplate reader. Data were analyzed in the SoftMax Pro 5 software and plotted using GraphPad Prism 7 graphing software.
(§3) To determine the species cross reactivity, ELISA assays were carried out as described above. […] There was no detectable binding of any of the antibodies to mouse cMET.

[7] = biological target: T1, Human EGFR; experiment: ELISA species cross reactivity; type: binding; conditions: antibody 10 to 0.002 μg/mL
Protocol: as §2, §3

[8] = biological target: T2, Mouse EGFR; experiment: ELISA species cross reactivity; type: binding
Protocol: as §2, §3

[9] = biological target: T3, Cynomolgus monkey cMET (recombinant, soluble monomeric) (cynomolgus monkey, UniProt A0M8R7 25-932 (Papio anubis entry)); experiment: SPR, Biacore T200, antibody captured on anti-human IgG, soluble monomeric antigen as analyte, 25 C
T3 construct: also called cyno cMET
T3 sequence (A0M8R7 25-932 S170N/I621T): as the sequence (as listed by the source) above

[10] = biological target: T4, Cynomolgus monkey EGFR (recombinant, soluble monomeric) (cynomolgus monkey, UniProt P55245 25-645 (rhesus entry)); experiment: as above
T4 construct: also called cyno EGFR

[11] = biological target: T5, Mouse EGFR (recombinant, soluble monomeric) (mouse, UniProt Q01279 25-647); experiment: as above
T5 construct: also called murine EGFR

[12] = biological target: T6, Human cMET (recombinant, soluble monomeric) (human, UniProt P08581 25-932); experiment: as above
T6 construct: in the HTRF assay it is called the human cMET receptor; also called His-tagged cMET antigen
T6 sequence (P08581 25-932): as the sequence (P08581 25-932) above

[13] = biological target: Mouse cMET (recombinant) (mouse, UniProt P16056 25-929, limits assumed); experiment: ELISA: antigen coated at 1 ug/mL, antibody dilution series, goat anti-human Fab-HRP, A450; panel Mouse cMET
Sequence of Mouse cMET (recombinant) (P16056 25-929 limits assumed): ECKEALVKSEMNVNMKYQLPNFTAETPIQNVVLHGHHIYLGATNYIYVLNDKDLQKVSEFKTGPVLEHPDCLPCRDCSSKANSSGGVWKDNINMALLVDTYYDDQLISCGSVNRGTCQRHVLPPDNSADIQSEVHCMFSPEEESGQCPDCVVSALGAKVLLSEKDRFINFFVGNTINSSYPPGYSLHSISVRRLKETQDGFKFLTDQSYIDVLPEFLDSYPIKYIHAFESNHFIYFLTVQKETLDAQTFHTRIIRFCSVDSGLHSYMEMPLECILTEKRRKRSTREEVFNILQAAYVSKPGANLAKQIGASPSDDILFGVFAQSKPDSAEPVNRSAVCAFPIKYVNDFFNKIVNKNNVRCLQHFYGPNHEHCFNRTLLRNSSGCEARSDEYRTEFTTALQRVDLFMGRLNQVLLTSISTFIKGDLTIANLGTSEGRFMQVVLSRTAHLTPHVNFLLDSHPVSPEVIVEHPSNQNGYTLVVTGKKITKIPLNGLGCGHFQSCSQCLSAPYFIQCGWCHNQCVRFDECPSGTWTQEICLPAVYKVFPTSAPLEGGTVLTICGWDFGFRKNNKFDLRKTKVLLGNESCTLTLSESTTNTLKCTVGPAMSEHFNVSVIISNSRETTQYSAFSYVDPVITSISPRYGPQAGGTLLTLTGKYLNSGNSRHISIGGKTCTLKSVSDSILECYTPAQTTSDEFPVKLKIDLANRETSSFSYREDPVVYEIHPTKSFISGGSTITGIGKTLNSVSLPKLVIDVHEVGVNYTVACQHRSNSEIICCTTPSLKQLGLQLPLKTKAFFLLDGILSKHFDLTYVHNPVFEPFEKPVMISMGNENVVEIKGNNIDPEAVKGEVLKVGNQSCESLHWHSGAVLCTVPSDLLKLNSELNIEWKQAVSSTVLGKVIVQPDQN

[14] = biological target: T7, HER2 (UniProt P04626 23-652, limits assumed); experiment: ELISA: antigen coated at 1 ug/mL, antibody dilution series, goat anti-human Fab-HRP, A450; panel Human HER2
T7 construct: also called EGFR HER family protein HER2

B1: RAA22/B09-57 DuetMab (bispecific antibody, human IgG1, kappa, lambda)
heavy 1: QVQLVQSGAEVKKPGSSVKVSCKASGGTFSDNDFSWVRQAPGQGLEWMGAIVAVFRTETYAQKFQDRVKITADISTRTTYMELSSLRSEDTAVYYCARRLMSAISGPGAPLLMWGQGTLVTVSSASTKGPSVFPLAPSSKSTSGGTAALGCLVKDYFPEPVTVSWNSGALTSGVHTFPAVLQSSGLYSLSSVVTVPSSSLGTQTYICNVNHKPSNTKVDKRVEPKSCDKTHTCPPCPAPELLGGPSCVFLFPPKPKDTLMISRTPEVTCVVVDVSHEDPEVKFNWYVDGVEVHNAKTKPREEQYNSTYRVVSVLTVLHQDWLNGKEYKCKVSNKALPAPIEKTISKAKGQPREPQVCTLPPSREEMTKNQVSLSCAVKGFYPSDIAVEWESNGQPENNYKTTPPVLDSDGSFFLVSKLTVDKSRWQQGNVFSCSVMHEALHNHYTQKSLSLSPGK
heavy 2: QVQLVQSGAEVKKPGASVKVSCKASGYTFTDYYIHWVRQATGQGLEWMGWMNPNSGNTGYAQKFQGRVTMTRDTSISTAYMELSSLRSEDTAVYYCARGQGYTHSWGQGTMVTVSSASTKGPSVCPLAPSSKSTSGGTAALGCLVKDYFPEPVTVSWNSGALTSGVHTFPAVLQSSGLYSLSSVVTVPSSSLGTQTYICNVNHKPSNTKVDKRVEPKSVDKTHTCPPCPAPELLGGPSCVFLFPPKPKDTLMISRTPEVTCVVVDVSHEDPEVKFNWYVDGVEVHNAKTKPREEQYNSTYRVVSVLTVLHQDWLNGKEYKCKVSNKALPAPIEKTISKAKGQPREPQVYTLPPCREEMTKNQVSLWCLVKGFYPSDIAVEWESNGQPENNYKTTPPVLDSDGSFFLYSKLTVDKSRWQQGNVFSCSVMHEALHNHYTQKSLSLSPG
light 1: QSALTQPRSVSGSPGQSVTISCTGTSSDVGGYNYVSWYQQHPGKAPKLMIYDVSKRPSGVPDRFSGSKSGNTASLTISGLQAEDEADYYCSSYTSSDTLEIFGGGTKLTVLGQPKAAPSVTLFPPSSEELQANKATLVCLISDFYPGAVTVAWKADSSPVKAGVETTTPSKQSNNKYAASSYLSLTPEQWKSHRSYSCQVTHEGSTVEKTVAPTECS
light 2: DIQMTQSPSTLSASVGDRVTITCRASEGIYHWLAWYQQKPGKAPKLLIYKASSLASGVPSRFSGSGSGTEFTLTISSLQPDDFATYYCQQYSNYPPTFGGGTKLEIKRTVAAPSVFIFPPCDEQLKSGTASVVCLLNNFYPREAKVQWKVDNALQSGNSQESVTEQDSKDSTYSLSSTLTLSKADYEKHKVYACEVTHQGLSSPVTKSFNRGEV
notes: also called monovalent bispecific EGFR/cMET DuetMAb RAA22/B09; RAA22/B09-Maia
[1]
  Koff: 0.00548 s⁻¹
  Kon: 27800 M⁻¹ s⁻¹
[2]
  Koff: 0.00212 s⁻¹
  Kon: 974000 M⁻¹ s⁻¹
[3]
  Koff: 0.00201 s⁻¹
  Kon: 44700 M⁻¹ s⁻¹
[4]
  Koff: 0.000986 s⁻¹
  Kon: 443000 M⁻¹ s⁻¹
[4]; koff/kon
  Kd: ~2 nM
[5]
  Koff: 0.0206 s⁻¹
  Kon: 35400 M⁻¹ s⁻¹
[6]
  ELISA binding: still weaker binding
[7]
  ELISA binding: still weaker binding
[8]
  ELISA binding: nominal binding
[9]
  Kd: 2.2 nM
  koff: 0.00212 s⁻¹
  kon: 974000 M⁻¹ s⁻¹
[10]
  Kd: 197 nM
  koff: 0.00548 s⁻¹
  kon: 27800 M⁻¹ s⁻¹
[11]
  Kd: 575 nM
  koff: 0.0206 s⁻¹
  kon: 35400 M⁻¹ s⁻¹
[12]
  Kd: 2.2 nM
  koff: 0.000986 s⁻¹
  kon: 443000 M⁻¹ s⁻¹
[13]
  binding result: no binding (tested: 10 ug/ml)
[14]
  binding result: no binding (tested: 10 ug/ml)

B2: QD6/B09-57 DuetMab (bispecific antibody, human IgG1, kappa, lambda)
heavy 1: B1 heavy 1 with F55V
heavy 2: B1 heavy 2
light 1: B1 light 1 with K55E, S91F
light 2: B1 light 2
notes: also called monovalent bispecific EGFR/cMET DuetMAb QD6/B09
[1]
  Koff: 0.000585 s⁻¹
  Kon: 210000 M⁻¹ s⁻¹
[2]
  Koff: 0.00206 s⁻¹
  Kon: 958000 M⁻¹ s⁻¹
[3]
  Koff: 0.000374 s⁻¹
  Kon: 63500 M⁻¹ s⁻¹
[3]; KD calculated as koff/kon
  Kd: ~6 nM
[4]
  Koff: 0.000696 s⁻¹
  Kon: 425000 M⁻¹ s⁻¹
[5]
  Koff: 0.00078 s⁻¹
  Kon: 126000 M⁻¹ s⁻¹
[5]; koff/kon
  Kd: ~6 nM
[6]
  ELISA binding: gave robust signals
[7]
  ELISA binding: gave robust signals
[8]
  ELISA binding: gave robust signals
[9]
  Kd: 2.2 nM
  koff: 0.00206 s⁻¹
  kon: 958000 M⁻¹ s⁻¹
[10]
  Kd: 2.8 nM
  koff: 0.000585 s⁻¹
  kon: 210000 M⁻¹ s⁻¹
[11]
  Kd: 6.2 nM
  koff: 0.00078 s⁻¹
  kon: 126000 M⁻¹ s⁻¹
[12]
  Kd: 1.6 nM
  koff: 0.000696 s⁻¹
  kon: 425000 M⁻¹ s⁻¹
[13]
  binding result: no binding (tested: 10 ug/ml)
[14]
  binding result: no binding (tested: 10 ug/ml)
